Laboratory results taken from publication PMC12416549 (2024).
Numbering of substitutions follows the chain as printed. Names may count otherwise.

Target: T1, TNFR1 (Homo sapiens, UniProt P19438)
T1 chain: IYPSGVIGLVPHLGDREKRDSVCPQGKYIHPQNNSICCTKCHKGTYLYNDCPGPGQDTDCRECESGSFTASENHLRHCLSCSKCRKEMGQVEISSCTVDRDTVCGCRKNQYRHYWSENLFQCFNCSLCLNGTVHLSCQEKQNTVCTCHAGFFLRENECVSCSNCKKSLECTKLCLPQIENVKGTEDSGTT
Test: yeast display SC50

B1: E49N (designed binder)
chain: SMEEEVEKAAKEYEKKKKEAIEKHLEKLKAKDKEAAERFLKELEEAAKNYAKDEAKTMSEEEAKRRAKKYKEKVLLSELSEEEQKEIKEAEEKLVRTILKYVEEAAK
- apparent Kd (screen): 10.4 nM

B2: V102Y (designed binder)
chain: B1 chain with N49E, V102Y
- apparent Kd (screen): 2.73 nM

B3: E42R (designed binder)
chain: B1 chain with E42R, N49E
- apparent Kd (screen): 7.78 nM

B4: L76T (designed binder)
chain: B1 chain with N49E, L76T
- apparent Kd (screen): 0.653 nM

B5: A36R (designed binder)
chain: B1 chain with A36R, N49E
- apparent Kd (screen): 0.718 nM

B6: L75V (designed binder)
chain: B1 chain with N49E, L75V
- apparent Kd (screen): 0.446 nM

B7: Y50E (designed binder)
chain: B1 chain with N49E, Y50E
- apparent Kd (screen): 9.41 nM

B8: E7W (designed binder)
chain: B1 chain with E7W, N49E
- apparent Kd (screen): 12.5 nM

B9: K71C (designed binder)
chain: B1 chain with N49E, K71C
- apparent Kd (screen): 0.446 nM

B10: R65G (designed binder)
chain: B1 chain with N49E, R65G
- apparent Kd (screen): 0.956 nM

B11: R38P (designed binder)
chain: B1 chain with R38P, N49E
- apparent Kd (screen): 11.4 nM

B12: A55I (designed binder)
chain: B1 chain with N49E, A55I
- apparent Kd (screen): 3 nM

B13: E49H (designed binder)
chain: B1 chain with N49H
- apparent Kd (screen): 10.4 nM

B14: L75W (designed binder)
chain: B1 chain with N49E, L75W
- apparent Kd (screen): 0.446 nM

B15: D53Q (designed binder)
chain: B1 chain with N49E, D53Q
- apparent Kd (screen): 2.05 nM

B16: K56S (designed binder)
chain: B1 chain with N49E, K56S
- apparent Kd (screen): 7.78 nM

B17: K18P (designed binder)
chain: B1 chain with K18P, N49E
- apparent Kd (screen): 5.84 nM

B18: R38D (designed binder)
chain: B1 chain with R38D, N49E
- apparent Kd (screen): 3 nM

B19: L99A (designed binder)
chain: B1 chain with N49E, L99A
- apparent Kd (screen): 16.7 nM

B20: E62M (designed binder)
chain: B1 chain with N49E, E62M
- apparent Kd (screen): 0.446 nM

B21: K88H (designed binder)
chain: B1 chain with N49E, K88H
- apparent Kd (screen): 0.49 nM

B22: E44G (designed binder)
chain: B1 chain with E44G, N49E
- apparent Kd (screen): 2.48 nM

B23: K85M (designed binder)
chain: B1 chain with N49E, K85M
- apparent Kd (screen): 0.956 nM

B24: E60Q (designed binder)
chain: B1 chain with N49E, E60Q
- apparent Kd (screen): 1.05 nM

B25: V102F (designed binder)
chain: B1 chain with N49E, V102F
- apparent Kd (screen): 10.4 nM

B26: D32I (designed binder)
chain: B1 chain with D32I, N49E
- apparent Kd (screen): 4.83 nM

B27: V6D (designed binder)
chain: B1 chain with V6D, N49E
- apparent Kd (screen): 13.8 nM

B28: K85W (designed binder)
chain: B1 chain with N49E, K85W
- apparent Kd (screen): 0.446 nM

B29: V102S (designed binder)
chain: B1 chain with N49E, V102S
- apparent Kd (screen): 0.446 nM

B30: E60K (designed binder)
chain: B1 chain with N49E, E60K
- apparent Kd (screen): 1.69 nM

B31: R66F (designed binder)
chain: B1 chain with N49E, R66F
- apparent Kd (screen): 22.2 nM

B32: R96F (designed binder)
chain: B1 chain with N49E, R96F
- apparent Kd (screen): 2.48 nM

B33: K93I (designed binder)
chain: B1 chain with N49E, K93I
- apparent Kd (screen): 1.69 nM

B34: L25N (designed binder)
chain: B1 chain with L25N, N49E
- apparent Kd (screen): 0.539 nM

B35: A20N (designed binder)
chain: B1 chain with A20N, N49E
- apparent Kd (screen): 0.539 nM

B36: E92S (designed binder)
chain: B1 chain with N49E, E92S
- apparent Kd (screen): 7.07 nM

B37: E92F (designed binder)
chain: B1 chain with N49E, E92F
- apparent Kd (screen): 13.8 nM

B38: E54I (designed binder)
chain: B1 chain with N49E, E54I
- apparent Kd (screen): 13.8 nM

B39: E34Y (designed binder)
chain: B1 chain with E34Y, N49E
- apparent Kd (screen): 0.539 nM

B40: E22Y (designed binder)
chain: B1 chain with E22Y, N49E
- apparent Kd (screen): 1.27 nM

B41: K23R (designed binder)
chain: B1 chain with K23R, N49E
- apparent Kd (screen): 0.49 nM

B42: S1E (designed binder)
chain: B1 chain with S1E, N49E
- apparent Kd (screen): 0.49 nM

B43: I87E (designed binder)
chain: B1 chain with N49E, I87E
- apparent Kd (screen): 9.41 nM

B44: K11N (designed binder)
chain: B1 chain with K11N, N49E
- apparent Kd (screen): 0.446 nM

B45: K17C (designed binder)
chain: B1 chain with K17C, N49E
- apparent Kd (screen): 2.73 nM

B46: K56E (designed binder)
chain: B1 chain with N49E, K56E
- apparent Kd (screen): 1.86 nM

B47: A51Y (designed binder)
chain: B1 chain with N49E, A51Y
- apparent Kd (screen): 0.49 nM

B48: K56N (designed binder)
chain: B1 chain with N49E, K56N
- apparent Kd (screen): 4.39 nM

B49: E19S (designed binder)
chain: B1 chain with E19S, N49E
- apparent Kd (screen): 0.446 nM

B50: I98T (designed binder)
chain: B1 chain with N49E, I98T
- apparent Kd (screen): 15.2 nM

B51: E103H (designed binder)
chain: B1 chain with N49E, E103H
- apparent Kd (screen): 0.446 nM

B52: E5V (designed binder)
chain: B1 chain with E5V, N49E
- apparent Kd (screen): 1.27 nM

B53: E78V (designed binder)
chain: B1 chain with N49E, E78V
- apparent Kd (screen): 0.593 nM

B54: E54M (designed binder)
chain: B1 chain with N49E, E54M
- apparent Kd (screen): 2.48 nM

B55: A51D (designed binder)
chain: B1 chain with N49E, A51D
- apparent Kd (screen): 12.5 nM
